Assay in all cases: SEC; HiLoad 16/60 Superdex 75, 50 mM sodium phosphate pH 7.4, 50 µg sample, 0.6 mL/min, calibrated with mass standards; self-association of the free light chain (dimer)
Test [1] deals with Bence Jones protein from AL-2 patient (human) (UniProt P01701).
Test [2] concerns the target recombinant free immunoglobulin lambda light chain of AL amyloidosis patient AL-1 (human) (UniProt P01699).
Test [3] concerns the target recombinant free immunoglobulin lambda light chain of AL amyloidosis patient AL-2 (human) (UniProt P01701).
Test [4] concerns the target recombinant free immunoglobulin lambda light chain of AL amyloidosis patient AL-3 (human) (UniProt P01699).

Substance “Bence Jones protein from AL-2 patient (from UniProt P01701 20-117) (natural protein)” gave a stoichiometry N in test [1] of 2.

Take “recombinant free immunoglobulin lambda light chain of AL amyloidosis patient AL-1 (from UniProt P01699 20-117)”: the stoichiometry N in test [2] is 2.

For “recombinant free immunoglobulin lambda light chain of AL amyloidosis patient AL-2 (from UniProt P01701 20-117)”, the stoichiometry N in test [3] turned out to be 2.

As for “recombinant free immunoglobulin lambda light chain of AL amyloidosis patient AL-3 (from UniProt P01699 20-117)”, in test [4], the stoichiometry N came out at 2.

The values are drawn from paper PMC3785434.
